Assay results from paper PMC5037814.

Key:
[1] = biological target: recombinant bovine Casq1 (non-glycosylated) (bovine (B. taurus)); assay: SEC-MALS; 50 µM Casq1 on Yarra 3u SEC-2000, 20 mM MOPS, 300 mM KCl, 0.05 g/dL NaN3, pH 7.2, 2 mM CaCl2
[2] = biological target: recombinant bovine Casq1 (non-glycosylated) (bovine (B. taurus)); assay: crystal structure; high-Ca2+ form: protein incubated with 5 mM Ca2+ before mixing (2.5 mM in the drop); hanging drop, 4 °C, 0.1 M HEPES, 0.2 M NaCl, 27.5% MPD, pH 7.0
[3] = biological target: native bovine Casq1 (skeletal muscle calsequestrin, glycosylated) (bovine (B. taurus)); assay: SEC-MALS; 50 µM Casq1 on Yarra 3u SEC-2000, 20 mM MOPS, 300 mM KCl, 0.05 g/dL NaN3, pH 7.2, 2 mM CaCl2
[4] = biological target: native bovine Casq1 (skeletal muscle calsequestrin, glycosylated) (bovine (B. taurus)); assay: crystal structure; high-Ca2+ form: protein incubated with 5 mM Ca2+ before mixing (2.5 mM in the drop); hanging drop, 4 °C, 0.1 M HEPES, 0.2 M NaCl, 27.5% MPD, pH 7.0
[5] = biological target: native bovine Casq1 (skeletal muscle calsequestrin, glycosylated) (bovine (B. taurus)); assay: SEC-MALS; 50 µM Casq1 on Yarra 3u SEC-2000, 20 mM MOPS, 300 mM KCl, 0.05 g/dL NaN3, pH 7.2, 1 mM CaCl2

| stoichiometry N [1] | stoichiometry N [2] | stoichiometry N [3] | stoichiometry N [4] | stoichiometry N [5] | Substance |
| --- | --- | --- | --- | --- | --- |
| 2 | 6 |  |  |  | recombinant bovine Casq1 (non-glycosylated) (natural protein) |
|  |  | 4 | 6 | 2 | native bovine Casq1 (skeletal muscle calsequestrin, glycosylated) (natural protein) |
